Data: IntAct's records for PubMed 25042851

B1: Ubiquitin-binding protein CUE5 (Saccharomyces cerevisiae), Q08412 (parent)
chain: MEEKEGIKDSSLLEKSNVPESINEDISKTTDVDLNSDGKKDNDTSAKDGTPKVEEKVNKSSGIDEDEVVTPAEDAKEEEEEHPPLPARRKSEEEPSKENPILQELKDAFPNLEEKYIKAVIIASQGVLSPAFNALLFLSDPESGKDIELPTQPVRKNPEAPARRRQTQLEQDELLARQLDEQFNSSHSRRRNRDRATRSMHEQRRRRHNPNEREQHHEDSEEEDSWSQFVEKDLPELTDRAGRSLQDTANKVSNWISDAYRRNFASGNEQNDNQHGHQDQQEWEPEIVDLSQGGKNSRPQQPERRRFNSFGVQVGDDSLESHGITLHNEDGFEDDEDVPPQLPTRTKSGESTGKVVAETTYIDTPDTETKKKWQPLPPEPLDTTPTKVNAVSRNKKNPDEDEFLINSDDEM
B2: Ubiquitin-binding protein CUE5 (Saccharomyces cerevisiae), Q08412 (parent)
chain: B1 chain
partner: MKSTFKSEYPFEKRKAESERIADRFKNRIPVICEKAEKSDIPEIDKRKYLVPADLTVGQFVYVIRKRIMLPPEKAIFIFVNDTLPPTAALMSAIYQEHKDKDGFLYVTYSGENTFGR

Variants of: B1
Details: with hd_human HTT

Variant	effect of a mutation on the interaction
MEEKEGIKDSSLLEKSNVPESINEDISKTTDVDLNSDGKKDNDTSAKDGTPKVEEKVNKSSGIDEDEVVTPAEDAKEEEEEHPPLPARRKSEEEPSKENPILQELKDAFPNLEEKYIKAVIIASQGVLSPAFNAAAFLSDPESGKDIELPTQPVRKNPEAPARRRQTQLEQDELLARQLDEQFNSSHSRRRNRDRATRSMHEQRRRRHNPNEREQHHEDSEEEDSWSQFVEKDLPELTDRAGRSLQDTANKVSNWISDAYRRNFASGNEQNDNQHGHQDQQEWEPEIVDLSQGGKNSRPQQPERRRFNSFGVQVGDDSLESHGITLHNEDGFEDDEDVPPQLPTRTKSGESTGKVVAETTYIDTPDTETKKKWQPLPPEPLDTTPTKVNAVSRNKKNPDEDEFLINSDDEM [L135A;L136A]	disrupting interaction strength

Variants of: B2
Details: with atg8_yeast ATG8, P38182

Variant	effect of a mutation on the interaction
MEEKEGIKDSSLLEKSNVPESINEDISKTTDVDLNSDGKKDNDTSAKDGTPKVEEKVNKSSGIDEDEVVTPAEDAKEEEEEHPPLPARRKSEEEPSKENPILQELKDAFPNLEEKYIKAVIIASQGVLSPAFNALLFLSDPESGKDIELPTQPVRKNPEAPARRRQTQLEQDELLARQLDEQFNSSHSRRRNRDRATRSMHEQRRRRHNPNEREQHHEDSEEEDSWSQFVEKDLPELTDRAGRSLQDTANKVSNWISDAYRRNFASGNEQNDNQHGHQDQQEWEPEIVDLSQGGKNSRPQQPERRRFNSFGVQVGDDSLESHGITLHNEDGFEDDEDVPPQLPTRTKSGESTGKVVAETTYIDTPDTETKKKAAAAPPEPLDTTPTKVNAVSRNKKNPDEDEFLINSDDEM [W373A;Q374A;P375A;L376A]	disrupting interaction strength
MEEKEGIKDSSLLEKSNVPESINEDISKTTDVDLNSDGKKDNDTSAKDGTPKVEEKVNKSSGIDEDEVVTPAEDAKEEEEEHPPLPARRKSEEEPSKENPILQELKDAFPNLEEKYIKAVIIASQGVLSPAFNALLFLSDPESGKDIELPTQPVRKNPEAPARRRQTQLEQDELLARQLDEQFNSSHSRRRNRDRATRSMHEQRRRRHNPNEREQHHEDSEEEDSWSQFVEKDLPELTDRAGRSLQDTANKVSNWISDAYRRNFASGNEQNDNQHGHQDQQEWEPEIVDLSQGGKNSRPQQPERRRFNSFGVQVGDDSLESHGITLHNEDGFEDDEDVPPQLPTRTKSGESTGKVVAETTYIDTPDTETKKKAQPLPPEPLDTTPTKVNAVSRNKKNPDEDEFLINSDDEM [W373A]	decreasing interaction strength
MEEKEGIKDSSLLEKSNVPESINEDISKTTDVDLNSDGKKDNDTSAKDGTPKVEEKVNKSSGIDEDEVVTPAEDAKEEEEEHPPLPARRKSEEEPSKENPILQELKDAFPNLEEKYIKAVIIASQGVLSPAFNALLFLSDPESGKDIELPTQPVRKNPEAPARRRQTQLEQDELLARQLDEQFNSSHSRRRNRDRATRSMHEQRRRRHNPNEREQHHEDSEEEDSWSQFVEKDLPELTDRAGRSLQDTANKVSNWISDAYRRNFASGNEQNDNQHGHQDQQEWEPEIVDLSQGGKNSRPQQPERRRFNSFGVQVGDDSLESHGITLHNEDGFEDDEDVPPQLPTRTKSGESTGKVVAETTYIDTPDTETKKKWQPAPPEPLDTTPTKVNAVSRNKKNPDEDEFLINSDDEM [L376A]	decreasing interaction strength
